Data from patent US12686704B2, “Procoagulant peptides and use thereof” (RAMBAM MED-TECH LTD., priority 2021, dated 2026).
Where no end group is shown, it is not given here.

Key:
[1] = molecular target: lipidated TF, factor VIIa, factor X (Homo sapiens, UniProt P13726); test: Factor X activation assay of purified proteins (chromogenic substrate); type: biochemical; conditions: peptides at 5 μg/ml and 10 μg/ml; compared to control; FIG. 1A
Procedure: FIGS. 1A-1C include vertical bar graphs and thromboelastography (TEG) curves, showing that peptide 16 and peptide 16AC increase coagulation. Peptide 16 and 16AC were studied in an assay of purified proteins that included lipidated TF (4 nM), factor VIIa (40 nM), factor X (1.4 μM) and assay buffer. Factor X activated form (Xa) level was studied using a chromogenic substrate (1 mM). […] Bovine factor Xa diluted in the assay buffer was used to generate a standard curve. Without addition of TF (two right columns), no factor Xa was generated. […] (1B) A citrated pooled normal human blood sample (n=3) was left for 4 hours at room temperature in order to expose TF in bloods cells. Following this period, the peptides 16 and 16AC were added (5 μg/ml) along with calcium. […] Representative TEG curves are shown. (1C) The study presented in FIG. 1B was repeated 3 times with different pooled plasma. […] Peptide 16 (non-modified); peptide 16 comprising a C-terminal amid group (16A); peptide 16 comprising an N-terminal acetyl group (16C); and peptide 16 comprising a C-terminal amid group and an N-terminal acetyl group (16AC). In 1B: for control—SP min=11.2; R min=12.8; K min=3.8, Angle deg=52.0; and MA mm=47.9, for Peptide 16—SP min=5.2; R min=6.4; K min=2.8, Angle deg=63.3; and MA mm=50.4, and for Peptide 16AC—SP min=4.7; R min=5.6; K min=2.5, Angle deg=63.1; and MA mm=53.8.
Peptides 16, 16C, 16A and 16AC were studied in an assay of purified proteins that included lipidated TF (0.004 μM), factor VIIa (0.04 μM), factor X (1.4 μM) and assay buffer. Factor X activated form (Xa) level was studied using a chromogenic substrate (1 mM). […] Bovine factor Xa diluted in the assay buffer was used to generate a standard curve. Without addition of TF (two right columns), no factor Xa was generated.

[2] = test system: Hemophilic mice (VIII-KO mice); test: Mouse-tail bleeding time model in hemophilic mice; type: in vivo; conditions: subcutaneous 150-375 μg/kg; FIG. 3D
Procedure: FIGS. 3A-3D include vertical bar graphs showing that modified heparanase procoagulant peptides of the invention decrease bleeding in hemophilic mice. Hemophilic mice (VIII-KO mice; C57BL/6 background, strain name B6;129S4-F8tm1Kaz/J) were studied. (3A) Peptides 16 or 16AC were injected subcutaneously at the flank in doses 150, 225, 300, 375 μg/kg. A mouse-tail bleeding time model was performed. The peptides were dissolved in phosphate-buffered saline (PBS). Control (0) group was injected with the vehicle phosphate buffered saline (PBS). (3D) is identical to (3A) with the exception that peptide 16 C […] and peptide 16A […] were also administered in the disclosed doses. In a similar study, the peptides were topically applied on the tail immediately following the incision of the tail at a rate of a drop every 5 seconds (3B). […] Mann-Whitney U test was used. Results represent mean±SD. *p<0.05.
Hemophilic mice (VIII-KO mice; C57BL/6 background, strain name B6;129S4-F8tm1Kaz/J) were studied. Peptides 16 or 16AC were injected sub-cutis at the flank in doses 150, 225, 300, 375 μg/kg. A mouse-tail bleeding time model was performed. The peptides were dissolved in phosphate-buffered saline (PBS). Control (0) group was injected with the vehicle phosphate buffered saline (PBS) (FIGS. 3A and 3D). In a similar study, the peptides were topically applied on the tail immediately following the incision of the tail at a rate of a drop every 5 seconds (FIG. 3B).

lipidated TF, factor VIIa, factor X, sequence (P13726 33-295): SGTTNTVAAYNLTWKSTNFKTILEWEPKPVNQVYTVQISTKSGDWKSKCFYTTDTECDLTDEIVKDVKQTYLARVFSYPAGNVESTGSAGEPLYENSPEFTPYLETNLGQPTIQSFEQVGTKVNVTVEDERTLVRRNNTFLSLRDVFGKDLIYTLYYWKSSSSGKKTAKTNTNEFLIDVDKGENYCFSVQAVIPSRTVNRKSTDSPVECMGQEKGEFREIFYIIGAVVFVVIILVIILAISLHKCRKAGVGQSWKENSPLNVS
lipidated TF, factor VIIa, factor X, sequence (P08709 61-212 partner limits assumed): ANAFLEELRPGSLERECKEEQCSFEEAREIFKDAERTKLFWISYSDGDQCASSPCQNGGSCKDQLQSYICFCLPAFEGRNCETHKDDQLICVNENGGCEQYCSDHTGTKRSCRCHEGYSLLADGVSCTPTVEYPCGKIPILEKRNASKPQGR
lipidated TF, factor VIIa, factor X, sequence (P08709 213-466 partner limits assumed): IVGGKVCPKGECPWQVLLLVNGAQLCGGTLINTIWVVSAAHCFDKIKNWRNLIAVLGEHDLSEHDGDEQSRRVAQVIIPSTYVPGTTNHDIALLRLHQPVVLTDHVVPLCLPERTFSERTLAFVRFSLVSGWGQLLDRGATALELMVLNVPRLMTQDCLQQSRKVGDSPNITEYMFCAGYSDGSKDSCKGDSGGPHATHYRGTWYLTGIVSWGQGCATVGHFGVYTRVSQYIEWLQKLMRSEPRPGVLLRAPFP

acetyl-GSKRRKLRVYLHCT (Ac-GSKRRKLRVYLHCT) [Peptide 16C, peptide 16 comprising an N-terminal acetyl group]
activation of factor X (factor Xa level) [1]: significantly increased activation of factor X compared to control

GSKRRKLRVYLHCT-amid (GSKRRKLRVYLHCT-NH2) [Peptide 16A, peptide 16 comprising a C-terminal amid group]
bleeding time reduction, comparison between peptides [2]: significant better effect to reduce the bleeding time compared to peptide 16 and peptide 16C
activation of factor X (factor Xa level) [1]: significantly increased activation of factor X compared to control
